Results reported in patent US20190112387A1 (ISTITUTO BIOCHIMICO ITALIANO GIOVANNI LORENZINI S P A, published 2019).
Values belong to the binder of their own block, whether it stands above or below them.

Molecular target: T1, human ERBB2 receptor (human, UniProt P04626 23-1255)
T1 construct: whole, on cells; Presented on human breast carcinoma cell lines with different ERBB2 levels; also called HER2; Neu-Erb
Test: flow cytometry on SK-BR-3 cells (FIG. 7 legend)
Description: Humanized heavy SEQ NO.1 and light chains SEQ. NO.2 or SEQ. […] The cells were cultured in Erlenmeyer flask in incubator at 37° C., 5% CO₂ on a shaker at 120 rpm for at least 14 days. The surnatants were purified through standard protein A resins. […] NO.1 and SEQ.

binding result: binds
B1: mAb W6/800 (antibody, V domains shown)
VH: QVQLQQSGAELMKPGASVKISCKATGYTFSNYWIEWVKQRPGHGLEWIGEILPGSGSTNYNEKLKGKATFTADTSSNTAYMQLSSLTSEDSGVYYCARGGGNYPYYFDYWGQGTTVTVSS
VL: IELMTQSHKFMSTSVGDRVSITCKASQDVGTAVAWYQQKPGQSPKLLIYWASTRHTGVPDRFTGSGSGTDFTLTISNVQSEDLADYFCQQYSSYRTFGAGTKLE
notes: Murine IgG2a purified from hybridoma cultures; they are assigned here by order and by likeness to the humanized VH and VL; also called murine W6/800; parental murine antibody

binding result: binds
B2: humanized W6/800 antibody huW6/800 (antibody, V domains shown)
VH: QVQLVQSGAEVKKPGASVKISCKASGYTFSNYWIEWVRQAPGQGLEWMGEILPGSGSTNYNEKLKGRVTSTRDTSISTAYMELSRLRSDDTGVYYCARGGGNYPYYFDYWGQGTTVTVSS
VL: DIQMTQSPSTLSASVGDRVTITCKASQDVGTAVAWYQQKPGKAPKLLIYWASTRHTGVPSRFSGSGSGTEFTLTISSLQPDDFADYFCQQYSSYRTFGAGTKLEIK
notes: also called humanized antibody
